{
  "source": "patent US11834472B2",
  "about": "“Anti-IL-22 antibodies, antibody fragments, their immunoconjugates and uses thereof” (BioAtla, Inc., priority 2018, dated 2023)",
  "molecules": {"B1": {"name": "CPS02: mutant anti-IL-22 antibody binding human and mouse IL-22; light chain LC-06, heavy chain HC-08 (antibody, V domains shown)", "VH": "QVQLVQSGAEVKKPGASVKVSCKASGYIFRSYWIHWIRQPPGKGLEWIGRIYPGTGRTYYNEKFKGRVTISADKSISTAYLQWSSLKASDTAMYYCARSYDSSVAYWGQGTLVTVSS", "VL": "AIQLTQSPSSLSASVGDRVTITCSASSSVSYMHWYLQKPGQSPQLLIYKTRKLASGVPSRFSGSGSGTDFTFTISSLEAEDAATYYCQQWSSNPYITFGQGTKVEIKR"}},
  "key": {"mouse IL-22 (mIL-22)": {"biological_target": "T1, mouse IL-22 (mIL-22) (Mus musculus, UniProt Q9JJY9)", "T1 sequence (Q9JJY9 34-179)": "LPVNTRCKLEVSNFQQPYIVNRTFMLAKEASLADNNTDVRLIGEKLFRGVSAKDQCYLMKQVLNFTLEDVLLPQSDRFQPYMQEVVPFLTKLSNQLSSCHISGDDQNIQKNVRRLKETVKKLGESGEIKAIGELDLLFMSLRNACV", "experiment": "Inhibition of mIL-22 induced Stat3 phosphorylation in HepG2 cells", "assay_type": "cell-based", "details": "mAb 6.7 nM", "experimental": "One of the immediate functions of IL-22 is inducing phosphorylation of Stat3, a protein in the signaling pathway of IL-22. The 10 antibodies of Table 1 were tested in a cell-based assay for blocking IL-22-dependent phosphorylation of Stat3 through human or mouse IL-22 in HepG2 cells. Antibody hum10 and mutant CPE-LC-E049K were used as controls. Four concentrations of each of the antibodies were used: 0.11 μg/mL, 0.33 μg/mL, 1 μg/mL, and 3 μg/mL.\n30,000 human HepG2 cells were seeded in 96 well plates and serum starved overnight. Three-fold dilutions of anti-IL-22 antibodies and control hum10 antibody at concentrations of 0.11 μg/mL, 0.33 μg/mL, 1 μg/mL, and 3 μg/mL were incubated with 200 ng/ml of hIL-22 or mIL-22 at 37° C. for one hour then added to the serum starved human HepG2 cells. The HepG2 cells were incubated with the antibody-IL-22 mixture at 37° C. for 20 minutes. After incubation, HepG2 cells were washed with PBS and lysed. Half of the cell lysate was used to determine the level of phosphorylated Stat3 using Cell Signaling kit #7300 following the vendor's protocol and the other half of the cell lysate was used to determine the level of total Stat3 by Western blot analysis using a Santa Cruz rabbit polyclonal antibody (Sc-7179) against human Stat3."}, "[1]": {"system": "imiquimod (IMQ) induced psoriasis", "assay_type": "in vivo", "description": "Two anti-IL-22 antibodies of the present invention, CPS02 and CPS09, were used for the treatment of imiquimod (IMQ) induced psoriasis in mice (FIG. 12). The mice were male BALB/c mice, which were an albino, laboratory-bred strain of the house mouse. A total of 70 mice, at a body weight of 18-20 g, were acclimated for 7 days before induction of psoriasis.\nThe 70 mice were randomized into 7 groups (10 mice in each group). One group (group 1) was used as a negative control to which no imiquimod was administered to the mice, which was instead replaced with Vaseline. […] The other 6 groups (groups 2-7) were dosed topically with imiquimod at a dosage of 82.5 mg/mouse (5% cream) once daily (qd) for 8 consecutive days from day 0 to day 7 (20 mg for the left ear, 62.5 mg for the shaved back) to induce psoriasis. The back skin was shaved to expose an area of 2×3 cm^2. For the Vaseline control group, the Vaseline was also applied at 82.5 mg/mouse once daily (qd) for 8 consecutive days (20 mg for left ear, 62.5 mg for the shaved back) from day 0 to day 7.\nGroup 2 was a group of psoriasis-induced mice that were untreated to serve as a control group. The treatment period completely overlapped with the imiquimod application period (day 0 to day 7). For group 2, the mice received both imiquimod and […] on each day of the 8-day period (day 0 to day 7). For the groups that received intravenous (I.V.) injection, the imiquimod was applied within one hour after the I.V. injection on days 0 and 3.\nGroup 3 was treated with the steroid dexamethasone, which is a current therapeutic treatment used for psoriasis. The dexamethasone was topically applied twice a day (BID) for 8 days. Group 4 was treated with phosphate-buffered saline (PBS), which served as a negative control. Group 5 was treated with an isotype control antibody that also served as a negative control. Groups 6-7 were treated with the anti-IL22 antibodies CPS02 (A) and CPS09 (B), respectively. The treatments for Groups 4-7 were administered by a single intravenous (I.V.) injection on each of days 0 and 3. 3 mice in group 6 died on day 0 and 2 died on day 1. On day 3, the I.V. injection dosage for this group was decreased to 10 mg/kg.\nDuring the 8 day treatment period, the ear thickness was measured on days 0, 3, 5 and 7. The body weight and various skin scores were recorded daily. Pictures of the psoriasis sites were taken on days 0, 3, 5 and 7. On days 1 and 4, about 60 μl blood was collected via retro-orbital bleeding over 24 hours and placed in BD Microtainer® tubes coated with dipotassium ethylenediaminetetraacetic acid (K2EDTA). Plasma was then collected (to get at least 20 μl plasma) and stored at −80° C.\nSkin scores for erythema, scales and thickness were measured daily according to an established grading system. The erythema, scales and thickness were scored independently on a scale of from 0 to 4: 0 means none, 1 means slight, 2 means moderate, 3 means marked, and 4 means very marked. The cumulative (total) skin score was also calculated.\nThe effects of the treatments were analyzed statistically using two-way analysis of variance (ANOVA, Bonferroni post-tests) or one-way ANOVA analysis. For comparisons between the treatment groups and the control group, the p value is denoted in FIGS. 13-18 as (*) if less than 0.05, (**) if less than 0.01, or (***) if less than 0.001."}, "[2]": {"experiment": "Aggregate formation at 10 mg/mL in PBS", "assay_type": "physicochemical"}, "mIL22": {"biological_target": "T2, mIL22 (Mus musculus, UniProt Q9JJY9)", "T2 sequence (Q9JJY9 34-179)": "T1 sequence (Q9JJY9 34-179)", "experiment": "Inhibition of mIL-22 induced acute phase response (SAA) in mice", "assay_type": "in vivo", "details": "5 μg mIL22 and 50 μg mAb; molar ratio of mIL 22:mAb = 1:2.2; SAA in mice at 24 hours", "experimental": "IL-22 induces acute phase responses in animals such as mice and humans. The mutant antibodies of the present invention can inhibit the acute phase response induced by IL-22. This acute phase response is indicated by the concentration of serum amyloid (SAA) in the blood of the animal as shown in FIG. 11. The SAA concentrations in the blood of mice were measured 24 hours after treatment of the mice by IL-22 and/or the mutant antibodies. When only IL-22 is used, the SAA concentration was high.\n5 μg mIL-22 was used to stimulate an acute phase response in mice. The acute phase response was measured by the concentration of serum amyloid (SAA) in the blood of the mice. The anti-IL-22 antibodies were administered at two different dosage levels to inhibit the IL-22 induced acute phase response: 5 μg and 50 μg. Five mice were used for each dose group. The SAA concentrations were measured at 24 hours after injection of IL-22 and/or antibodies and the results are shown in FIG. 11."}, "[3]": {"details": "group 6 (10 mice), 20 mg/kg I.V. on day 0"}},
  "data": [
    {"molecule": "B1", "values": [
      {"measurement": "STAT3 Phosphorylation; mIL22 % inhibition", "setting": "mouse IL-22 (mIL-22)", "value": 76.18, "unit": "%"},
      {"measurement": "reduction in body weight of the treated mice", "setting": "[1]; IMQ psoriasis mice, days 0-7, in comparison to dexamethasone / PBS (FIG. 13)", "value": "less reduction in body weight"},
      {"measurement": "mice died on day 0", "setting": "[1]; [3]", "value": 3, "unit": "mice"},
      {"measurement": "mice died on day 1", "setting": "[1]; [3]", "value": 2, "unit": "mice"},
      {"measurement": "ear skin thickness", "setting": "[1]; vs negative controls (isotype matched antibody, PBS, vehicle) (FIG. 14)", "value": "less"},
      {"measurement": "skin erythema score", "setting": "[1]; vs negative controls (isotype matched antibody, PBS, vehicle) (FIG. 15)", "value": "lower"},
      {"measurement": "skin scale score", "setting": "[1]; vs negative controls (isotype matched antibody, PBS, vehicle) (FIG. 16)", "value": "lower"},
      {"measurement": "skin thickness", "setting": "[1]; vs negative controls (isotype matched antibody, PBS, vehicle) (FIG. 17)", "value": "lower"},
      {"measurement": "total skin score", "setting": "[1]; vs negative controls (isotype matched antibody, PBS, vehicle) (FIG. 18)", "value": "lower"},
      {"measurement": "Aggregate formation at 10 mg/mL in PBS", "setting": "[2]", "value": "no"},
      {"measurement": "Acute Phase response (% signal reduction)", "setting": "mIL22", "value": "signal increase"}
    ]}
  ]
}
